Source: patent US20250205362A1, “LIPID NANOPARTICLES” (NATIONAL UNIVERSITY CORPORATION HOKKAIDO UNIVERSITY, priority 2022, published 2025)
Positions count from the first letter of the chain named. One block for each molecule: values may come before it.

Experiments:
[1] = Average particle diameter, PdI and zeta potential of lipid nanoparticles (dynamic light scattering); type: physicochemical
Protocol: The mean particle diameter (number average value), ζ-mean particle diameter, and polydispersity index (PdI) of the lipid nanoparticles in PBS(−) (pH 7.4), as well as the zeta potential in 10 mM HEPES buffer (pH 7.4), were measured using an analyzing device, Zetasizer Nano ZS ZEN3600 (Malvern), which utilizes dynamic light scattering.

[2] = Encapsulation rate of lipid nanoparticles (Ribogreen); type: physicochemical
Protocol: The encapsulation rate of the lipid nanoparticles was calculated by measuring the amount of encapsulated nucleic acid (the amount of ssODN in the case of RNP-ssODN) using an RNA intercalator Ribogreen (manufactured by Life Technologies).

TTR gene = assay: Measurement of TTR-KO activity (serum TTR protein, ELISA); type: in vivo, mouse; conditions: for KO (%) 1st test / KO (%) 2nd test: TTR-KO activity in mice, TTR-RNP-ssODN-loaded LNP CL4H6/DSPC/cholesterol/PEG-DMG 50/10/40/3.5 mol%, sgTTR-G211 (TTR_3) or sgTTR-G269 (TTR_4); for serum TTR (5′ versus 3′ mismatch site): FIG. 8, sgTTR-G211, 7 days after administration
Protocol: Lipid nanoparticles encapsulating Cas9/sgTTR-RNP (Cas9/sgTTR-RNP-loaded lipid nanoparticles) were intravenously injected to BALB/c mice (female, 4 weeks old) at the indicated doses. One week after intravenous injection, the mice were euthanized, blood was collected, and serum was isolated by centrifugation. The TTR protein concentration in the serum was determined using a commercially available ELISA kit (Prealbumin ELISA Kit (mouse), Aviva Systems Biology) according to the manufacturer's protocol. The serum TTR protein concentration of untreated mice was taken as 100%, and the relative value (%) of the serum TTR protein concentration of mice administered with each lipid nanoparticle was taken as the knockout activity (TTR-KO activity) of the lipid nanoparticle.

[3] = Fluc mRNA-loaded LNP, cationic lipid/DSPC/cholesterol/PEG-DMG 50/10/40/1.5 mol%, Table 5
[4] = Fluc mRNA-loaded LNP, comparison CL4F11-ζ-2, SM, ALC, MC3, Table 21
[5] = TTR-RNP-ssODN-loaded LNP, comparison CL4F11-ζ-2, SM, ALC, MC3, Table 20
[6] = Fluc mRNA-loaded LNP, CL4F11-e-3/neutral lipid (DSPC or DOPE)/cholesterol/PEG-DMG 50/10/40/0.75 mol%
[7] = TTR-RNP-ssODN-loaded LNP, sgTTR-G211, CL4H6/DSPC/cholesterol/PEG-DMG 50/10/40/3.5 mol%, Table 13

Number-average particle diameter [1, 3]: 89.3 nm
PdI [1, 3]: 0.144
ζ-average [1, 3]: 141.4 nm
ζ-potential [1, 3]: −3.44 mV
Encapsulation rate [2, 3]: 88.9%
Molecule: 7-(4-(dipropylamino)butyl)-7-hydroxy-13-((3-propylhexanoyl)oxy)tridecyl 3-ethylheptanoic acid [CL4F6-b-3]

Number-average particle diameter [1, 3]: 94.4 nm
PdI [1, 3]: 0.267
ζ-average [1, 3]: 237.6 nm
ζ-potential [1, 3]: −3.06 mV
Encapsulation rate [2, 3]: 77.5%
Molecule: 7-(4-(dipropylamino)butyl)-7-hydroxytridecane-1,13-diylbis(3-butylheptanoate) [CL4F7-b-4]

Number-average particle diameter [1, 4]: 44.7 nm
PdI [1, 4]: 0.085
ζ-average [1, 4]: 61.9 nm
ζ-potential [1, 4]: −1.75 mV
Number-average particle diameter [1, 5]: 50.7 nm
PdI [1, 5]: 0.138
ζ-average [1, 5]: 78.8 nm
ζ-potential [1, 5]: 0.51 mV
Encapsulation rate [2, 4]: 87.4%
Encapsulation rate [2, 5]: 73.9%
Molecule: CCCCCCCCC(CCCCCC)C(=O)OCCCCCCN(CCCCO)CCCCCCOC(=O)C(CCCCCC)CCCCCCCC (stereo not drawn) [ALC, ALC-0315, reference compound]

Molecule: CCCCCC(CCC)CCCCC(=O)OCCCCCCC(O)(CCCCCCOC(=O)CCCCC(CCC)CCCCC)CCCCN(CCC)CCC (stereo not drawn) [CL4F11-e-3, 7-(4-(dipropylamino)butyl)-7-hydroxytridecane-1,13-diylbis(6-propylundecanoate)]
knockout (TTR gene; FIG. 5, TTR-RNP-ssODN-loaded LNP, mouse serum 7 days after administration): ≥ 90%

Molecule: CCCCC(CC)CCCCCC(=O)OCCCCCCC(O)(CCCCCCOC(=O)CCCCCC(CC)CCCC)CCCCN(CCC)CCC (stereo not drawn) [CL4F11-ζ-2, 7-(4-(dipropylamino)butyl)-7-hydroxytridecane-1,13-diylbis(7-ethylundecanoate)]
suppression of TTR gene expression (TTR gene; FIG. 15, 2.0 mg RNP/kg body weight, single administration, 7 days): 98%

Number-average particle diameter [1, 6]: 54.7 nm
PdI [1, 6]: 0.275
ζ-average [1, 6]: 104.7 nm
ζ-potential [1, 6]: −2.41 mV
Encapsulation rate [2, 6]: 85.3%
Molecule: CCCCCCCCCCCCCCCCCC(=O)OC[C@H](COP(=O)([O-])OCC[N+](C)(C)C)OC(=O)CCCCCCCCCCCCCCCCC [DSPC, 1,2-distearoyl-sn-glycero-3-phosphocholine]

Number-average particle diameter [1, 4]: 52.4 nm
PdI [1, 4]: 0.131
ζ-average [1, 4]: 76.7 nm
ζ-potential [1, 4]: 0.24 mV
Number-average particle diameter [1, 5]: 64.6 nm
PdI [1, 5]: 0.137
ζ-average [1, 5]: 93.6 nm
ζ-potential [1, 5]: 1.43 mV
Encapsulation rate [2, 4]: 88.4%
Encapsulation rate [2, 5]: 78.3%
Molecule: CCCCCCCCCCCOC(=O)CCCCCN(CCO)CCCCCCCC(=O)OC(CCCCCCCC)CCCCCCCC [SM, SM-102, reference compound]

B1: ssODN-TTR_4-40%: ssODN pairing with sgTTR-G269, 40% matched; SEQ ID NO 13 (nucleic acid)
DNA: AAAAAAAAAAAAAAAAAAAAAAAAAAAAAAAAAAAAAAAAAAAAAAAAAAAAAAAAAAAAAATGTAGGAGATAAAAAAAAAAAAAAAAAAAAAAAAAAAAAAAAAAAAAAAAAAAAAAAAAAAAAAAAAAAA
KO (%) 1st test (TTR gene): 19.9%
KO (%) 2nd test (TTR gene): 29.6%
TTR-KO activity (ranking among ssODNs) (TTR gene; Table 10, CL4H6 LNP, per sgRNA): highest TTR-KO activity

B2: ssODN-TTR_3-30%: ssODN pairing with sgTTR-G211, 30% matched; SEQ ID NO 8 (nucleic acid)
DNA: B1 DNA with T65A, A66C, G68T, A69G, G70A, T72A, A75T, A76T
serum TTR activity / gene knockout activity (TTR gene; FIG. 23, CL4H6 LNP prepared at 4° C., 2.0 mg RNP/kg, 7 days): low serum TTR activity, exhibiting sufficient gene knockout activity
KO (%) 1st test (TTR gene): 17.4%
KO (%) 2nd test (TTR gene): 31.6%

B3: ssODN-TTR_3-10° C.-3′: ssODN pairing with sgTTR-G211, mismatch on one side; SEQ ID NO 16 (nucleic acid)
DNA: B1 DNA with G64A, G67A, G68A, G70A, T72A, A73G, A74T
Number-average particle diameter [1, 7]: 95.3 nm
PdI [1, 7]: 0.269
ζ-average [1, 7]: 172.6 nm
ζ-potential [1, 7]: 5.20 mV
serum TTR (5′ versus 3′ mismatch site) (TTR gene; CL4H6 LNP): about the same
Encapsulation rate [2, 7]: 62.9%

B4: ssODN-TTR_4-30%: ssODN pairing with sgTTR-G269, 30% matched; SEQ ID NO 14 (nucleic acid)
DNA: B1 DNA with T63A, G70A
KO (%) 1st test (TTR gene): 16.4%
KO (%) 2nd test (TTR gene): 14.4%

B5: ssODN-TTR_4-80%: ssODN pairing with sgTTR-G269, 80% matched; SEQ ID NO 10 (nucleic acid)
DNA: B1 DNA with A59G, A60T, A61G, A62C, A71T, T72A, A73T, A74G
KO (%) 2nd test (TTR gene): 21.0%

B6: ssODN-TTR_4-60%: ssODN pairing with sgTTR-G269, 60% matched; SEQ ID NO 11 (nucleic acid)
DNA: B1 DNA with A61G, A62C, A71T, T72A
KO (%) 1st test (TTR gene): −0.9%
KO (%) 2nd test (TTR gene): 30.7%

B7: ssODN-TTR_3-24° C.-3′: ssODN pairing with sgTTR-G211, mismatch on one side; SEQ ID NO 18 (nucleic acid)
DNA: B1 DNA with G64A, G67A, G68A, A69G, A71C, A73G, A74T
Number-average particle diameter [1, 7]: 73.1 nm
PdI [1, 7]: 0.200
ζ-average [1, 7]: 140.1 nm
ζ-potential [1, 7]: 5.73 mV
serum TTR (5′ versus 3′ mismatch site) (TTR gene; CL4H6 LNP): about the same
Encapsulation rate [2, 7]: 65.6%

B8: ssODN-TTR_3-60%: ssODN pairing with sgTTR-G211, 60% matched; SEQ ID NO 5 (nucleic acid)
DNA: B1 DNA with A61G, A62T, T63A, T65A, A66C, G68T, A69G, A71C, A75T, A76T
KO (%) 1st test (TTR gene): 26.4%
KO (%) 2nd test (TTR gene): 35.4%

B9: ssODN-TTR_3-10° C.-5′: ssODN pairing with sgTTR-G211, mismatch on one side; SEQ ID NO 17 (nucleic acid)
DNA: B1 DNA with A57T, A58G, A59C, G64A, G67A, G68A, G70A, T72A, A75T, A76T
Number-average particle diameter [1, 7]: 82.4 nm
PdI [1, 7]: 0.146
ζ-average [1, 7]: 141.0 nm
ζ-potential [1, 7]: 3.98 mV
serum TTR (5′ versus 3′ mismatch site) (TTR gene; CL4H6 LNP): about the same
Encapsulation rate [2, 7]: 59.0%

B10: ssODN-TTR_3-24° C.-5′: ssODN pairing with sgTTR-G211, mismatch on one side; SEQ ID NO 19 (nucleic acid)
DNA: AAAAAAAAAAAAAAAAAAAAAAAAAAAAAAAAAAAAAAAAAAAAAAAAAAAAAAAATGCTGTAGTAAAAAAAAATTAAAAAAAAAAAAAAAAAAAAAAAAAAAAAAAAAAAAAAAAAAAAAAAAAAAAAAAA
Number-average particle diameter [1, 7]: 76.7 nm
PdI [1, 7]: 0.147
ζ-average [1, 7]: 123.5 nm
ζ-potential [1, 7]: 2.71 mV
serum TTR (5′ versus 3′ mismatch site) (TTR gene; CL4H6 LNP): about the same
Encapsulation rate [2, 7]: 61.5%

B11: ssODN-TTR_3-100%: ssODN pairing with sgTTR-G211, 100% matched; SEQ ID NO 3 (nucleic acid)
DNA: AAAAAAAAAAAAAAAAAAAAAAAAAAAAAAAAAAAAAAAAAAAAAAAAAAAAAAAATGCTGTAGACGTGGCTGTAAAAAAAAAAAAAAAAAAAAAAAAAAAAAAAAAAAAAAAAAAAAAAAAAAAAAAAAAA
KO (%) 1st test (TTR gene): 20.0%
KO (%) 2nd test (TTR gene): 28.6%

B12: ssODN-TTR_4-50%: ssODN pairing with sgTTR-G269, 50% matched; SEQ ID NO 12 (nucleic acid)
DNA: B11 DNA
KO (%) 1st test (TTR gene): 15.4%
KO (%) 2nd test (TTR gene): 33.8%
